{"source": "IntAct's records for PubMed 29892012", "parents": {"B1": {"name": "Pre-B-cell leukemia transcription factor 4 (Homo sapiens), Q9BYU1 (parent)", "chain": "MAAPPRPAPSPPAPRRLDTSDVLQQIMAITDQSLDEAQARKHALNCHRMKPALFSVLCEIKEKTVVSIRGIQDEDPPDAQLLRLDNMLLAEGVCRPEKRGRGGAVARAGTATPGGCPNDNSIEHSDYRAKLSQIRQIYHSELEKYEQACREFTTHVTNLLQEQSRMRPVSPKEIERMVGAIHGKFSAIQMQLKQSTCEAVMTLRSRLLDARRKRRNFSKQATEVLNEYFYSHLNNPYPSEEAKEELARKGGLTISQVSNWFGNKRIRYKKNMGKFQEEATIYTGKTAVDTTEVGVPGNHASCLSTPSSGSSGPFPLPSAGDAFLTLRTLASLQPPPGGGCLQSQAQGSWQGATPQPATASPAGDPGSINSSTSN", "partner": "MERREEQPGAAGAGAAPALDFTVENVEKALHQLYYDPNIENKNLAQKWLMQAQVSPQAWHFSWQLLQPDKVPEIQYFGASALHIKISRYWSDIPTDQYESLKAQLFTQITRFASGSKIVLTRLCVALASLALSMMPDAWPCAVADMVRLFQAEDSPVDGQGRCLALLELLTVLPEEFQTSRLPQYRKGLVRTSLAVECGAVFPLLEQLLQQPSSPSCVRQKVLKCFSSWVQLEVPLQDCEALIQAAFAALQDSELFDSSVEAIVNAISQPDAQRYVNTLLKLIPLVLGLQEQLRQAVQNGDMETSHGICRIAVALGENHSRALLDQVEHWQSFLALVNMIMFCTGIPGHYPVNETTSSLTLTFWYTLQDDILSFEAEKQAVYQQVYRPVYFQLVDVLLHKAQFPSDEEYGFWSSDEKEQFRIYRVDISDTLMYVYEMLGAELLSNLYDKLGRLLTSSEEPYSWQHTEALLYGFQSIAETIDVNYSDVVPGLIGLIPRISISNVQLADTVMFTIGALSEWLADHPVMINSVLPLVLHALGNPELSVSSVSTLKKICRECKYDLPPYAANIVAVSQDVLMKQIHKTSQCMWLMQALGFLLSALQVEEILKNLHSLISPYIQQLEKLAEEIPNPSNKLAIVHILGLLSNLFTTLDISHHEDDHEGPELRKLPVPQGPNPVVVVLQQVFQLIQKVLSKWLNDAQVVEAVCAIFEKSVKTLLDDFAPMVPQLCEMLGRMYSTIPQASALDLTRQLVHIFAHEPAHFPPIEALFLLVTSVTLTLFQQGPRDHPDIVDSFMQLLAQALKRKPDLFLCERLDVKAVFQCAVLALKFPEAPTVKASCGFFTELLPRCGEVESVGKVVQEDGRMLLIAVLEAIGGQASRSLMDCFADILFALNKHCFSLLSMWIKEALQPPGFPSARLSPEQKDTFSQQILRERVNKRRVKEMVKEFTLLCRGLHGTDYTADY"}, "B2": {"name": "Pre-B-cell leukemia transcription factor 4 (Homo sapiens), Q9BYU1 (parent)", "chain": "B1 chain", "partner": "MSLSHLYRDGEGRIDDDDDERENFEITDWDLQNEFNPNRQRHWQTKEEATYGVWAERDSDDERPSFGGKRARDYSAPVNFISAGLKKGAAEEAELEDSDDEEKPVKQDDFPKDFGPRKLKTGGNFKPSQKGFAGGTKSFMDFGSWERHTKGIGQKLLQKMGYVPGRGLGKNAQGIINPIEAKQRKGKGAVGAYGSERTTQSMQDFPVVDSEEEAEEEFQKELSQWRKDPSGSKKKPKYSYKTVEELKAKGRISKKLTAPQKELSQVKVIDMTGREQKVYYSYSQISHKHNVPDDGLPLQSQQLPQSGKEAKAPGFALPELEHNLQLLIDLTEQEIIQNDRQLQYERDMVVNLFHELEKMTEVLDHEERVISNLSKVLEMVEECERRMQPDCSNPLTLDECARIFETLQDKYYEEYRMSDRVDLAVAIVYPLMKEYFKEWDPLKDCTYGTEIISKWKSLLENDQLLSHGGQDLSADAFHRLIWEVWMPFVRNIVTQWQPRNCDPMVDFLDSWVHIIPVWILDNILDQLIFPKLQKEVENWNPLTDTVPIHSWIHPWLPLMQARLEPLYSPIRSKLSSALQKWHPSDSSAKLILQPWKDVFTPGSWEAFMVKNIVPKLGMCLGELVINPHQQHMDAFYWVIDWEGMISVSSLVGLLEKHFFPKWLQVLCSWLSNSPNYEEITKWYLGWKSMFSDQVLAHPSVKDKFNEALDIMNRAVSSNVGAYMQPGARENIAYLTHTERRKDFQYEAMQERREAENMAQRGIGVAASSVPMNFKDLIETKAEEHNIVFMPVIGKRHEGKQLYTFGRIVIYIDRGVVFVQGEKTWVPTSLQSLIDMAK"}, "B3": {"name": "Pleckstrin homology domain-containing family G member 2 (Homo sapiens), Q9H7P9 (parent)", "chain": "MPEGAQGLSLSKPSPSLGCGRRGEVCDCGTVCETRTAPAAPTMASPRGSGSSTSLSTVGSEGDPAPGPTPACSASRPEPLPGPPIRLHLSPVGIPGSARPSRLERVAREIVETERAYVRDLRSIVEDYLGPLLDGGVLGLSVEQVGTLFANIEDIYEFSSELLEDLENSSSAGGIAECFVQRSEDFDIYTLYCMNYPSSLALLRELSLSPPAALWLQERQAQLRHSLPLQSFLLKPVQRILKYHLLLQELGKHWAEGPGTGGREMVEEAIVSMTAVAWYINDMKRKQEHAARLQEVQRRLGGWTGPELSAFGELVLEGAFRGGGGGGPRLRGGERLLFLFSRMLLVAKRRGLEYTYKGHIFCCNLSVSESPRDPLGFKVSDLTIPKHRHLLQAKNQEEKRLWIHCLQRLFFENHPASIPAKAKQVLLENSLHCAPKSKPVLEPLTPPLGSPRPRDARSFTPGRRNTAPSPGPSVIRRGRRQSEPVKDPYVMFPQNAKPGFKHAGSEGELYPPESQPPVSGSAPPEDLEDAGPPTLDPSGTSITEEILELLNQRGLRDPGPSTHDIPKFPGDSQVPGDSETLTFQALPSRDSSEEEEEEEEGLEMDERGPSPLHVLEGLESSIAAEMPSIPCLTKIPDVPNLPEIPSRCEIPEGSRLPSLSDISDVFEMPCLPAIPSVPNTPSLSSTPTLSCDSWLQGPLQEPAEAPATRRELFSGSNPGKLGEPPSGGKAGPEEDEEGVSFTDFQPQDVTQHQGFPDELAFRSCSEIRSAWQALEQGQLARPGFPEPLLILEDSDLGGDSGSGKAGAPSSERTASRVRELARLYSERIQQMQRAETRASANAPRRRPRVLAQPQPSPCLPQEQAEPGLLPAFGHVLVCELAFPLTCAQESVPLGPAVWVQAAIPLSKQGGSPDGQGLHVSNLPKQDLPGIHVSAATLLPEQGGSRHVQAPAATPLPKQEGPLHLQVPALTTFSDQGHPEIQVPATTPLPEHRSHMVIPAPSTAFCPEQGHCADIHVPTTPALPKEICSDFTVSVTTPVPKQEGHLDSESPTNIPLTKQGGSRDVQGPDPVCSQPIQPLSWHGSSLDPQGPGDTLPPLPCHLPDLQIPGTSPLPAHGSHLDHRIPANAPLSLSQELPDTQVPATTPLPLPQVLTDIWVQALPTSPKQGSLPDIQGPAAAPPLPEPSLTDTQVQKLTPSLEQKSLIDAHVPAATPLPERGGSLDIQGLSPTPVQTTMVLSKPGGSLASHVARLESSDLTPPHSPPPSSRQLLGPNAAALSRYLAASYISQSLARRQGPGGGAPAASRGSWSSAPTSRASSPPPQPQPPPPPARRLSYATTVNIHVGGGGRLRPAKAQVRLNHPALLASTQESMGLHRAQGAPDAPFHM"}, "B4": {"name": "UBX domain-containing protein 6 (Homo sapiens), Q9BZV1 (parent)", "chain": "MKKFFQEFKADIKFKSAGPGQKLKESVGEKAHKEKPNQPAPRPPRQGPTNEAQMAAAAALARLEQKQSRAWGPTSQDTIRNQVRKELQAEATVSGSPEAPGTNVVSEPREEGSAHLAVPGVYFTCPLTGATLRKDQRDACIKEAILLHFSTDPVAASIMKIYTFNKDQDRVKLGVDTIAKYLDNIHLHPEEEKYRKIKLQNKVFQERINCLEGTHEFFEAIGFQKVLLPAQDQEDPEEFYVLSETTLAQPQSLERHKEQLLAAEPVRAKLDRQRRVFQPSPLASQFELPGDFFNLTAEEIKREQRLRSEAVERLSVLRTKAMREKEEQRGLRKYNYTLLRVRLPDGCLLQGTFYARERLGAVYGFVREALQSDWLPFELLASGGQKLSEDENLALNECGLVPSALLTFSWDMAVLEDIKAAGAEPDSILKPELLSAIEKLL", "partner": "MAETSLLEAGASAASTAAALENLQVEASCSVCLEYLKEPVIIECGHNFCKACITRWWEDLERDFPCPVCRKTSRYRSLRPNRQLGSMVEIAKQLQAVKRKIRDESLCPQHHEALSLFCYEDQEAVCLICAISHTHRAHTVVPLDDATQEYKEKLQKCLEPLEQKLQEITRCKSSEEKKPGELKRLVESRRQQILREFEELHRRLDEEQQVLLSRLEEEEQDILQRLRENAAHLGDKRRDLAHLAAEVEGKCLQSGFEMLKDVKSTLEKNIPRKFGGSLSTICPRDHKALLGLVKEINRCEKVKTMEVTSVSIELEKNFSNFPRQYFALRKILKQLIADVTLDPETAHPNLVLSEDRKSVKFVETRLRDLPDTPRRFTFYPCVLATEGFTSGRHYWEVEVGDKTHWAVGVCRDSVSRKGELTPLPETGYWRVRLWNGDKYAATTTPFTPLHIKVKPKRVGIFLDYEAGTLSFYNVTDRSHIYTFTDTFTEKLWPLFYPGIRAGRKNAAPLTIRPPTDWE"}, "B5": {"name": "CLK4-associating serine/arginine rich protein (Homo sapiens), Q8N2M8 (parent)", "chain": "MWHEARKHERKLRGMMVDYKKRAERRREYYEKIKKDPAQFLQVHGRACKVHLDSAVALAAESPVNMMPWQGDTNNMIDRFDVRAHLDHIPDYTPPLLTTISPEQESDERKCNYERYRGLVQNDFAGISEEQCLYQIYIDELYGGLQRPSEDEKKKLAEKKASIGYTYEDSTVAEVEKAAEKPEEEESAAEEESNSDEDEVIPDIDVEVDVDELNQEQVADLNKQATTYGMADGDFVRMLRKDKEEAEAIKHAKALEEEKAMYSGRRSRRQRREFREKRLRGRKISPPSYARRDSPTYDPYKRSPSESSSESRSRSRSPTPGREEKITFITSFGGSDEEAAAAAAAAAASGVTTGKPPAPPQPGGPAPGRNASARRRSSSSSSSSSASRTSSSRSSSRSSSRSRRGGGYYRSGRHARSRSRSWSRSRSRSRRYSRSRSRGRRHSGGGSRDGHRYSRSPARRGGYGPRRRSRSRSHSGDRYRRGGRGLRHHSSSRSRSSWSLSPSRSRSLTRSRSHSPSPSQSRSRSRSRSQSPSPSPAREKLTRPAASPAVGEKLKKTEPAAGKETGAAKPKLTPQEKLKLRMQKALNRQFKADKKAAQEKMIQQEHERQEREDELRAMARKIRMKERERREKEREEWERQYSRQSRSPSPRYSREYSSSRRRSRSRSRSPHYRH", "partner": "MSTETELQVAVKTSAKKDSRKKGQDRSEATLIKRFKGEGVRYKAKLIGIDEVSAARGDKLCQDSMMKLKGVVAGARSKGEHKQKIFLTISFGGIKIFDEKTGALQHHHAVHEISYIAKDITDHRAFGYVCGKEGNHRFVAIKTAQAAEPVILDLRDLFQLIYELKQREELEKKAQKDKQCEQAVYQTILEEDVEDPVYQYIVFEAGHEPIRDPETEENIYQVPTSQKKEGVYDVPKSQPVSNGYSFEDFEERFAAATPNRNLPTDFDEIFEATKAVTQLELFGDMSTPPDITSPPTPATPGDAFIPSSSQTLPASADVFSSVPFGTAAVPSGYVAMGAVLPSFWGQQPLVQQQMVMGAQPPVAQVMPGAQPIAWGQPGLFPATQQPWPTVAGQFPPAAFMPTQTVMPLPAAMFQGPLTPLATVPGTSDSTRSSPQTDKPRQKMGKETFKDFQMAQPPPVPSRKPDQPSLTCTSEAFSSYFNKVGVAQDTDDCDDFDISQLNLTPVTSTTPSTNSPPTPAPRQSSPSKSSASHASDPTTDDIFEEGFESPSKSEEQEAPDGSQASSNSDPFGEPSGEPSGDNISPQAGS"}}, "data": [{"variants_of": "B1", "conditions": "with ipo13_human IPO13, O94829", "values": [{"variant": "A247T", "effect of a mutation on the interaction": "disrupting interaction strength"}]}, {"variants_of": "B2", "conditions": "with tfp11_human TFIP11, Q9UBB9", "values": [{"variant": "A247T", "effect of a mutation on the interaction": "with no effect"}]}, {"variants_of": "B3", "conditions": "with actn3_human ACTN3, Q08043", "values": [{"variant": "V1248I", "effect of a mutation on the interaction": "with no effect"}]}, {"variants_of": "B4", "conditions": "with tri39_human TRIM39, Q9HCM9", "values": [{"variant": "E391K", "effect of a mutation on the interaction": "disrupting interaction strength"}]}, {"variants_of": "B5", "conditions": "with dab1_human DAB1, O75553", "values": [{"variant": "I163V", "effect of a mutation on the interaction": "with no effect"}]}]}
